Measurements reported in patent publication US20090022728A1 (RINAT NEUROSCIENCE, published 2009).
Changes are numbered by the printed parent chain.

B1: 9TL variant 22-T/I Fab (Fab, V domains shown)
VH: QVQLVQSGAEVKKPGASVKVSCKASGYYTEAYYIHWVRQAPGQGLEWMGRIDPATGNTKYAPRLQDRVTMTRDTSTSTVYMELSSLRSEDTAVYYCASLYSLPVYWGQGTTVTVSS
VL: DVVMTQSPLSLPVTLGQPASISCKSSQSLLYSDAKTYLNWFQQRPGQSPRRLIYQISRLDPGVPDRFSGSGSGTDFTLKISRVEAEDVGVYYCLQGTHYPVIFGQGTRLEIKR
notes: Fab; human IgG2 CH1 and kappa CL
B2: 9TL variant M12 Fab (Fab, V domains shown)
VH: B1 VH
VL: B1 VL with G96T, I102L
notes: as for B1
B3: 9TL variant M6 Fab (Fab, V domains shown)
VH: B1 VH
VL: B1 VL with L94K, I102L
notes: as for B1
B4: 9TL variant M4 Fab (Fab, V domains shown)
VH: B1 VH
VL: B1 VL with L94F, I102L
notes: as for B1
B5: 9TL variant M9 Fab (Fab, V domains shown)
VH: B1 VH
VL: B1 VL with L94G, I102L
notes: as for B1
B6: 9TL variant M8 Fab (Fab, V domains shown)
VH: B1 VH
VL: B1 VL with L94Q, I102L
notes: as for B1
B7: 9TL variant M11 Fab (Fab, V domains shown)
VH: B1 VH
VL: B1 VL with G96S, I102L
notes: as for B1
B8: 9TL variant M10 Fab (Fab, V domains shown)
VH: B1 VH
VL: B1 VL with L94S, I102L
notes: Fab; human IgG2 CH1 and kappa CL; same printed substitution as M7
B9: 9TL variant M14 Fab (Fab, V domains shown)
VH: B1 VH
VL: B1 VL with H98L, I102L
notes: as for B1
B10: 9TL variant C6 new Fab (Fab, V domains shown)
VH: B1 VH
VL: B1 VL with I102T
notes: as for B1
B11: 9TL variant M13 Fab (Fab, V domains shown)
VH: B1 VH
VL: B1 VL with T97S, I102L
notes: as for B1
B12: 9TL variant M2 Fab (Fab, V domains shown)
VH: B1 VH
VL: B1 VL with L94N, I102L
notes: as for B1
B13: 9TL variant M3 Fab (Fab, V domains shown)
VH: B1 VH
VL: B1 VL with L94C, I102L
notes: as for B1
B14: 9TL variant M7 Fab (Fab, V domains shown)
VH: B1 VH
VL: B1 VL with L94S, I102L
notes: as for B1
B15: 9TL variant M1 Fab (Fab, V domains shown)
VH: B1 VH
VL: B1 VL with L94M, I102L
notes: as for B1

Experiments:
[1] = target: T1, biotinylated Aβ1-40 peptide (biotinylated (N-biotinylated in Example 7)); assay: SPR, Fab over Aβ1-40 on SA chip; kon may be assumed = 9TL (footnote 2)
T1 construct: captured on streptavidin (SA) chip; also called Biotinylated Aβ peptide 1-40; Aβ1-40 on SA chip
Experimental: (§1) Affinities of 9TL Fab fragment and its variants Fab fragments were determined by Surface Plasmon Resonance (SPR) system (BIAcore 3000™, BIAcore, Inc., Piscaway, N.J.). SA chips (streptavidin) were used according to the supplier's instructions. Biotinylated Aβ peptide 1-40 was diluted into HBS-EP (10 mM HEPES pH 7.4, 150 mM NaCl, 3 mM EDTA, 0.005% P20) and injected over the chip at a concentration of 0.005 mg/mL. Using variable flow time across the individual chip channels, two ranges of antigen density were achieved: 10-200 response units (RU) for detailed kinetic studies and 500-600 RU for concentration studies and screening. […] HBS-EP buffer was used as running buffer for all the BIAcore assays. […] The concentrations of the Fab proteins were determined by ELISA and/or SDS-PAGE electrophoresis using a standard Fab of known concentration (determined by amino acid analysis). Kinetic association rates (kₒₙ) and dissociation rates (koff) were obtained simultaneously by fitting the data to a 1:1 Langmuir binding model (Karlsson, R. Roos, H. Fagerstam, L. Petersson, B. (1994). Methods Enzymology 6. 99-110) using the BIAevaluation program. Equilibrium dissociation constant (KD) values were calculated as koff/kₒₙ.
(§2) All amino acid substitutions of the variants shown in Table 3 are described relative to the sequence of 9TL. KD and other kinetic parameters were determined by BIAcore analysis described above with Aβ₁₋₄₀ immobilized on SA chip.

[2] = target: T1, biotinylated Aβ1-40 peptide; assay: SPR, Fab over Aβ1-40 on SA chip; KD=koff/kon
Experimental: as §1, §2

[3] = target: T1, biotinylated Aβ1-40 peptide; assay: SPR, Fab over Aβ1-40 on SA chip
Experimental: as §1, §2

T1 sequence (peptide, as listed by the source): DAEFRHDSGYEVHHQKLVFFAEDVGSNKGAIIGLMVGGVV

| Binder | kon [1] | Kd [2] | koff [3] | kon [3] |
| --- | --- | --- | --- | --- |
| B1 | 318000 M⁻¹ s⁻¹ | 1.45 nM | 0.00046 s⁻¹ | – |
| B2 | 318000 M⁻¹ s⁻¹ | 10.4 nM | 0.0033 s⁻¹ | – |
| B3 | 318000 M⁻¹ s⁻¹ | 12.9 nM | 0.0041 s⁻¹ | – |
| B4 | 318000 M⁻¹ s⁻¹ | 3.13 nM | 0.000995 s⁻¹ | – |
| B5 | 318000 M⁻¹ s⁻¹ | 24.5 nM | 0.0078 s⁻¹ | – |
| B6 | 318000 M⁻¹ s⁻¹ | 21.4 nM | 0.0068 s⁻¹ | – |
| B7 | 318000 M⁻¹ s⁻¹ | 6.29 nM | 0.002 s⁻¹ | – |
| B8 | 318000 M⁻¹ s⁻¹ | 26.1 nM | 0.0083 s⁻¹ | – |
| B9 | 318000 M⁻¹ s⁻¹ | 5.03 nM | 0.0016 s⁻¹ | – |
| B10 | – | 2.58 nM | 0.00092 s⁻¹ | 356000 M⁻¹ s⁻¹ |
| B11 | 318000 M⁻¹ s⁻¹ | 1.23 nM | 0.00039 s⁻¹ | – |
| B12 | 318000 M⁻¹ s⁻¹ | 3.46 nM | 0.0011 s⁻¹ | – |
| B13 | 318000 M⁻¹ s⁻¹ | 4.09 nM | 0.0013 s⁻¹ | – |
| B14 | 318000 M⁻¹ s⁻¹ | 18.9 nM | 0.006 s⁻¹ | – |
| B15 | 318000 M⁻¹ s⁻¹ | 2.7 nM | 0.00086 s⁻¹ | – |
